Assay results published in US20250115886A1.

Molecular target: TsCC(A)-(RGG)3-GFP scaffold (Caenorhabditis elegans)
Assay: integrated fluorescence intensity in condensates over whole cell, U2OS cells

Substance: Rac1-mCherry-TsCC(B) (from UniProt P63000 1-189)
- fraction of client localized to the synthetic organelle: 50%
